Test results taken from patent US20080199467A1.

Molecular target: Fc receptor on THP-1 cells
Assay: cell-based or functional assay

RAGE fusion protein TTP-4000 (Fc fusion), sequence (chain): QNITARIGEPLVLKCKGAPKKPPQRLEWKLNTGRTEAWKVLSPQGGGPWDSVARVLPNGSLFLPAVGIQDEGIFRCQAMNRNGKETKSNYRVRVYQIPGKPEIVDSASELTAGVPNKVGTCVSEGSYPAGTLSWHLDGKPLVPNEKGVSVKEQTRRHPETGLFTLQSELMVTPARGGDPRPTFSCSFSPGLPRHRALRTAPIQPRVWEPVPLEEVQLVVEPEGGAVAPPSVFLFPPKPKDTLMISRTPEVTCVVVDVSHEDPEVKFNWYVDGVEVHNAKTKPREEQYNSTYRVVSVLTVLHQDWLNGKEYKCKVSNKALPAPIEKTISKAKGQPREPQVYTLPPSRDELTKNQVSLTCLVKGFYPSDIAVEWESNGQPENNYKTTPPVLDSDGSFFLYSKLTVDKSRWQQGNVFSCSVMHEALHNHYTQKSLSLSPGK

TNF-α secretion from THP-1 cells on wells coated with 10 ug/well heat aggregated protein | Substance
< 2 ng/well | RAGE fusion protein TTP-4000 (Fc fusion)
> 40 ng/well | human IgG1 (heat aggregated, coated on the well) (antibody)
